pKd: −log10 of the molar value.
Tests used:
Assay in all cases: ELISA; dose response: host component coated, recombinant protein added at increasing concentrations, 2 h 37°C; detected with mouse antiserum; KD by non-linear regression, one site-specific binding (GraphPad Prism)
[1] = target: plasminogen (human plasma) (human)
[2] = target: cellular fibronectin (human foreskin fibroblasts) (human)
[3] = target: collagen I (rat tail) (rat) (UniProt P02454)
integrin α5β1 = integrin α5β1 (UniProt P08648)
integrin α8β1 = integrin α8β1 (UniProt P53708)
integrin αVβ1 = integrin αVβ1 (UniProt P06756)
integrin αVβ3 = integrin αVβ3 (UniProt P06756)
integrin αVβ5 = integrin αVβ5 (UniProt P06756)
integrin αVβ6 = integrin αVβ6 (UniProt P06756)
[4] = target: plasma fibronectin (human plasma) (human)
[5] = target: vitronectin (human plasma) (human)

Sequence of integrin α8β1 (P53708 39-1063, chain 1 of 2): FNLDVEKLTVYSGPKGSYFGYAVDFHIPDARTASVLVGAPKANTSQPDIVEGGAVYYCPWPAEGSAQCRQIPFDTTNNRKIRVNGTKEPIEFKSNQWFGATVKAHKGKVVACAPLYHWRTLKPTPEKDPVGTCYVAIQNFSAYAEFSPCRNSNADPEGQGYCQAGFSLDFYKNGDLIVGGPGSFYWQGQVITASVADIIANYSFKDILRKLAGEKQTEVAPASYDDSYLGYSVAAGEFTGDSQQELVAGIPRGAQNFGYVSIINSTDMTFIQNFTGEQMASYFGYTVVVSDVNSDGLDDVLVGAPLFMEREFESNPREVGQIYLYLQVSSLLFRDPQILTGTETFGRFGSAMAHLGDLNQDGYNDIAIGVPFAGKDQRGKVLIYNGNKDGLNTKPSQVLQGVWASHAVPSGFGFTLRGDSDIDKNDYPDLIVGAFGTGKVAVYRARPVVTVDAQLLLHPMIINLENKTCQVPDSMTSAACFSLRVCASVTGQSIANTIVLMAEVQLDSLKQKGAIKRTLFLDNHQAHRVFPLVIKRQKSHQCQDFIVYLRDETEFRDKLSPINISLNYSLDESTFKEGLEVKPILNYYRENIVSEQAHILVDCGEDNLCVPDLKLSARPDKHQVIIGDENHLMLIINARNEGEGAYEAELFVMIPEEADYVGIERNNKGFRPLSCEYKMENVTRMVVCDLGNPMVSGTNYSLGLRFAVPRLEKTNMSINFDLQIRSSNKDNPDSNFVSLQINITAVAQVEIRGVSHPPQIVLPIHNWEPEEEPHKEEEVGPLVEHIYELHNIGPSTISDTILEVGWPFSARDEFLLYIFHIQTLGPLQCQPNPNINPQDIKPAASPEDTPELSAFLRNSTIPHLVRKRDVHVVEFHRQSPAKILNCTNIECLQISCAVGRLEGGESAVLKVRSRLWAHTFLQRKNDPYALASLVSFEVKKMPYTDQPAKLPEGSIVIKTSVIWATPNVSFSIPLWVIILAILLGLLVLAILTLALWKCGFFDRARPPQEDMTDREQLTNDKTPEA
Sequence of integrin α8β1 (P05556 21-728, chain 2 of 2, further chain): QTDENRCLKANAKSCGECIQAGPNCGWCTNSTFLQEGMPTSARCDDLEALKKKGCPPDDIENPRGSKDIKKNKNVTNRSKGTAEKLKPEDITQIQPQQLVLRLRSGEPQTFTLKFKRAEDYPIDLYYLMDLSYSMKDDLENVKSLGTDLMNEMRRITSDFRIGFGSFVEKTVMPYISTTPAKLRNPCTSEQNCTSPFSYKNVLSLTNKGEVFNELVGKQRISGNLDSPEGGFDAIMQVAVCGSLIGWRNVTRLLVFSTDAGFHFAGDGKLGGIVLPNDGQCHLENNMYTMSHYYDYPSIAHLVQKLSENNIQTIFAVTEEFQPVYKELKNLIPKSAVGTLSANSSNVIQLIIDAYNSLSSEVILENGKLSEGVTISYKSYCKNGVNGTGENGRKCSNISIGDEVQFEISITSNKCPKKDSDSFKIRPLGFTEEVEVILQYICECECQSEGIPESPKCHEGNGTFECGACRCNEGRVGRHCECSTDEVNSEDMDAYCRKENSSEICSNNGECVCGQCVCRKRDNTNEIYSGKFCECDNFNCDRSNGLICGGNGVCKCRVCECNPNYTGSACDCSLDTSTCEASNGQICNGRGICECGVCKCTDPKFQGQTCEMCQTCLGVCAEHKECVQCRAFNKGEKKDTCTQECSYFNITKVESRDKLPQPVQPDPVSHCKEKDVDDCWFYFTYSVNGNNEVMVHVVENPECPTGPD
Sequence of integrin α5β1 (P08648 42-1049, chain 1 of 2): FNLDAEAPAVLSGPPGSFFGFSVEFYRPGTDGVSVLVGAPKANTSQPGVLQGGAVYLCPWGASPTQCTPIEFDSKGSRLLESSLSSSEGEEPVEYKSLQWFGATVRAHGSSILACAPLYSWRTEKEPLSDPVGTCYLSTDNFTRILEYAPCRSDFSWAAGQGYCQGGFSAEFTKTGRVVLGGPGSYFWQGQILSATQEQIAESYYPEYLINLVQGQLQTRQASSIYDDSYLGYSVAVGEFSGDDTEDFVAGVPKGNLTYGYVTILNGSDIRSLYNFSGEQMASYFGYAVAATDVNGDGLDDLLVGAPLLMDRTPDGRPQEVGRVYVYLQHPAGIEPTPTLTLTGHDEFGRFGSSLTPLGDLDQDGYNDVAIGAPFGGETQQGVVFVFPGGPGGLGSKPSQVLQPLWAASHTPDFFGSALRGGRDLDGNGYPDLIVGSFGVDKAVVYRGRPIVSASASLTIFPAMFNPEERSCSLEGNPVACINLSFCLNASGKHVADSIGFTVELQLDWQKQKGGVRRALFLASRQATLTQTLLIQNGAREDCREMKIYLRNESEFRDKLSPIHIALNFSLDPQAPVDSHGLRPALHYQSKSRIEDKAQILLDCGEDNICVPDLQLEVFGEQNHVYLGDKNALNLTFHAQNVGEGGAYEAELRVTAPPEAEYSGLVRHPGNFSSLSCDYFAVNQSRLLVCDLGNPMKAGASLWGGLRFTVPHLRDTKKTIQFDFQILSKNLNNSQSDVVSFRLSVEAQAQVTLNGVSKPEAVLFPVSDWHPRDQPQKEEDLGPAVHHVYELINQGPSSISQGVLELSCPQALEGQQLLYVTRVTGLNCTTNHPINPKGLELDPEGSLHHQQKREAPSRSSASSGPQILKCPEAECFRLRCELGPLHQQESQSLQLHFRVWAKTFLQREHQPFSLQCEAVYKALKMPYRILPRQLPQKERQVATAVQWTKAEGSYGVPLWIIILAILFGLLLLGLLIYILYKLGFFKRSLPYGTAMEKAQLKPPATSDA
Sequence of integrin α5β1 (P05556 21-728, chain 2 of 2, further chain): as the sequence (P05556 21-728, chain 2 of 2, further chain) above
Sequence of integrin αVβ3 (P06756 31-1048, chain 1 of 2): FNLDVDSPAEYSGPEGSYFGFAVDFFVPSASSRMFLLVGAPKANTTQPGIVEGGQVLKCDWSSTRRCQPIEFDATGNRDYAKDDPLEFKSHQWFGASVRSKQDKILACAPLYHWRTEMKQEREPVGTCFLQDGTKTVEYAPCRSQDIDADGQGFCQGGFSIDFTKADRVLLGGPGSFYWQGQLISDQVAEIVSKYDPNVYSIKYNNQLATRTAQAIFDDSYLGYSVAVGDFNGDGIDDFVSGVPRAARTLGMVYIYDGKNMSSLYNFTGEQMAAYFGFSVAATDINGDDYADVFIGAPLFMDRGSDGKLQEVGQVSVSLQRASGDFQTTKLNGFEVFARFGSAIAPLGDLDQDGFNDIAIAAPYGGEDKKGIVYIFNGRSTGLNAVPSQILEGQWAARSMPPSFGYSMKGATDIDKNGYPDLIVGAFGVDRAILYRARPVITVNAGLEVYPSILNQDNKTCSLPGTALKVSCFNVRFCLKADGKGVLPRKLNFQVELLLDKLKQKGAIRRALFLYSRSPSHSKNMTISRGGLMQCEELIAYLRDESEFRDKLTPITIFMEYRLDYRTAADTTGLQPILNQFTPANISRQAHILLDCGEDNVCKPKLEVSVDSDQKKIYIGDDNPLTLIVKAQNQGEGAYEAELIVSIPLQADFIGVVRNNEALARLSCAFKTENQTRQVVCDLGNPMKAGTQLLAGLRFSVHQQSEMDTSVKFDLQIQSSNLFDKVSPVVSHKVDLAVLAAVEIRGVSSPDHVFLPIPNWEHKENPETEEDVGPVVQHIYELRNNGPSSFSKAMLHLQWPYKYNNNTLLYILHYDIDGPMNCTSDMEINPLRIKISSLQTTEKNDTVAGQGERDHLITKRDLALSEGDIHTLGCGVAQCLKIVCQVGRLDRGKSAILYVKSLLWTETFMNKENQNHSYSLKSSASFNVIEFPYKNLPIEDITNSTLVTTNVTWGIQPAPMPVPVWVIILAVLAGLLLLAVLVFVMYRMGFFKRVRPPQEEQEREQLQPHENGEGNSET
Sequence of integrin αVβ3 (P05106 27-718, chain 2 of 2, further chain): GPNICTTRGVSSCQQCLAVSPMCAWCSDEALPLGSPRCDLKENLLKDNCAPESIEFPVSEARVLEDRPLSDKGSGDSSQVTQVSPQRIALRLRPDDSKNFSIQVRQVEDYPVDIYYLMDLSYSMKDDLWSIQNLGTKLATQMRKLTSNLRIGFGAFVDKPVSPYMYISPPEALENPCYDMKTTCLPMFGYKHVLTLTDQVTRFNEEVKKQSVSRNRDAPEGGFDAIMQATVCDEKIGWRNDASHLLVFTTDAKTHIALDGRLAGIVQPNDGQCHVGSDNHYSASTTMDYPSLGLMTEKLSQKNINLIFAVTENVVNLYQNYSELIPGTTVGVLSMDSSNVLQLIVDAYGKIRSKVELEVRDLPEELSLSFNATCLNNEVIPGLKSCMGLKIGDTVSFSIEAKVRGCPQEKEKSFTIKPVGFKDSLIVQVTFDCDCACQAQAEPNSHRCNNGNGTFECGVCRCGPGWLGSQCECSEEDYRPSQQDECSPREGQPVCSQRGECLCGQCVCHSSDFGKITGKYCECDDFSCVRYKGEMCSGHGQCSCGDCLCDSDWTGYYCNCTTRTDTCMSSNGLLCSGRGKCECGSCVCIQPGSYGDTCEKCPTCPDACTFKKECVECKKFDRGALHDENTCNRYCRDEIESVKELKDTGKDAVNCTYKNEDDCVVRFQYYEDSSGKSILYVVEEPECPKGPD
Sequence of integrin αVβ1 (P06756 31-1048, chain 1 of 2): as the sequence (P06756 31-1048, chain 1 of 2) above
Sequence of integrin αVβ1 (P05556 21-728, chain 2 of 2, further chain): as the sequence (P05556 21-728, chain 2 of 2, further chain) above

| Substance | pKd [1] | pKd [2] | pKd [3] | pKd (integrin α5β1) | pKd (integrin α8β1) | pKd (integrin αVβ1) | pKd (integrin αVβ3) | pKd (integrin αVβ5) | pKd (integrin αVβ6) | pKd [4] | pKd [5] |
| --- | --- | --- | --- | --- | --- | --- | --- | --- | --- | --- | --- |
| recombinant LIC11051 (rLIC11051), leucine-rich repeat protein of Leptospira interrogans serovar Copenhageni (natural protein) | 7.37 |  |  |  |  |  |  |  |  |  |  |
| recombinant LIC11505 (rLIC11505), leucine-rich repeat protein of Leptospira interrogans serovar Copenhageni (natural protein) | 7.62 | 7.70 | 7.10 | 7.13 | 6.72 | 6.87 | 6.82 | 6.96 | 7.13 | 7.29 | 7.19 |

Source: paper PMC11629876
